Data reported in a protein production outcome set (Wang et al. 2014).

assay: label from the status in PepcDB records

Row | Sequence | protein production
1 | MLETLMYGAISALVFGTVLPLLYRSKNIRKASSGLSLLSSILLLGFAGIILYTRTEPVFPVTGFLPGAGFTLSADRLAAGFILLIGAVVPGVSIYSVEYVEHAKSEARKSLQASLTNLFILAMLMVILAGNMVSFLVFWEIMSLSSLLLVLHDYSSEENKKAGFFYFVMTNISTAFLFVGFISLFRLTGSADFGPLEYPAADLALPFIFLFIGFGVKAGLVPFHKWLPYAHPAAPSSVSALMSGVMLKVAVYGFLRFLLSVSAPELWWGVLILTAGSISALFGVIYALKENDIKRMLAYSSIENIGIIFTGIGLYAVFKVEGLESLALLSLVGACFHAFNHAVFKSLLFLCAGSVVHATGTRKIEAFGGLVKSMPVTSALFLIGSVSIAAMPPTNGFAGELLLYQAFFQSFAVTDPLLNIFLIIALSSFALTGALAAALFVKLFGITCLAIPRSEKSRLAEEVQKPMLVGPAVPAAFCILGGLFSKQLLSLAGWKIDFPDLLLLGILLGLIYTALFVIIRSKETGPARISETWGCGIPALAPYMEYSSAGFSEPLVMIFKSIYRTKIVNRPEYFDEKESLFKNGKVEIRLLRFFEEYLYIPPARAIDIFSKYVSKLQNGKLDSYVLYAFLAVIVLIIATGGFV | failed
2 | MLEVHRTHRAKILNYSQVEDSLNRHGWSASKLWNVANYHSRQVWEETREIPGHEELKNELKGHDKYKGLHSQSSQRVLEELAEAFNSWYSSDDERDNPPGYRKQNYYDQQGRRVHEEHPLSTVTWKQNGIRHDTKNNRVRLSKGANHKEHPKAWEYILVEYETRPGVEVENLQQVRAVYDQTKERWELHLVCKEEIETPDAPGTETAGIDLGISNFAAVAYSTEDADLYPGNRLKQDGYYFPKEIANCDDSSGDRATRLHHKWSERRTHFFHSLAKHIVEKCIERSVGRINVGDLEGIREDENAKSKNWGRHGNLDLHGWAFDRFTSILEYKAKVEGIEVMEVSERDTSKTCCVCGREDDSQRVERGLYVCESCDAAFNADVNGAENIRLDIDEESNSESTGQLSGDRSTGWLAQPGVYLYDLSCGFQPQREVVDSKP | failed
3 | MLFSIQTCPCQINPALNAVSTPLLYQDCCQPYHDGLYNQEVEDSDAIRADTAEHLMRTRYSAFVLVKPEYIVKTTLPAQQDLLDIKAIENWAKETDWAGLEVVAHTPKLSKRHAQVEFKAYFKTPDGLQAHHELSTFVKIKNKANSDASWYFLDPTVSMSVTQKQPCICGSGEKFKRCCGMYI | not failed
4 | MLFSIRNFNQGVIMAGWFELSKSSDNQFRFVLKAGNGETILTSELYTSKASAEKGIASVRSNSPQEERYEKKTASNGKFYFNLKAANHQIIGSSQMYATAQSRETGIASVKANGTSQTVKDNT | failed
5 | MLFSLKYLGMTLVEQPKGEELSAAAIKRIVATAKASGKKLQKVTLKVSPRGIILTDNLTNQLIENVSIYRISYCTADKMHDKVFAYIAQSQHNQSLECHAFLCTKRKMAQAVTLTVAQAFKVAFEFWQVSKEEKEKRDKASQEGGDVLGARQDCTPPLKSLVATGNLLDLEETAKAPLSTVSANTTNMDEVPRPQALSGSSVVWELDDGLDEAFSRLAQSRTNPQVLDTGLTAQDMHYAQCLSPVDWDKPDSSGTEQDDLFSF | failed
6 | MLFTPEGTPMARRLEDARILMYSHDTFGLGHLRRCRAIAHALVEDYRGLNILIISGATIAGAFDYRARVDFVKIPSVIKLRNGEYTSLASHIDLHETLKMRESSIRHTAETFQPDIFIVDKEPMGLKGEVEDTLAYLKARGTVLVLGLREIMDAPHLLDAEWKRNGIMQKIDQYYDSVWVYGPPDFYDPLIGLDVPVSLRRKMDFVGFLQRSVSKGKTSIHARKDNYLLVTTGGGGDGSDLVHDVMNAYEADPTLTQKALVVLGPYMPAAERAKLVQKGEAIPYIEVIEFDNHMEELIDGATGVVAMGGYNTYCEILSFDKPALIVPRVKPREEQLLRAKRASELGLVDMLLPEQSVDPAIMAAALKRLPSRLPPSKSGSNMHLEGLDHISQTVGRWLDGRATHLAVVGAE | failed
7 | MLFWGSAFNAMSYVIQYMPPLSAAAERFTIASLGLFILFAAIGKLRWAALRQNLAIYLIIGIIGIAGFNLGCFYGLQTTSAVNGALIMATTPLITLLLTILLDGEKLTLNKSIGVVFGLSGVLFVISHGHISTLLHLKIAIGDLFILLGGVSFCLANMLSRRYVKNATPLETTTFSMMSGALTLIILSVIFEHPSQAIAMAPITAHLAMGYVIICSTMIAYLFWFNGIQKLGAGRASIFFNFVPVFSMLVALLAGQSLNIWQLIGTALVMLGVMSSGGFIQIKRPTLIAKPCTK | failed
8 | MLGAVARGGWVYEVHAAGAGTDLYRVSLLEGYQEQRPLSAAESAALPALLPLVHAESALSEMGYFHGVMGSTADTALAYDRFVGHTRWFGGEDGTRLLNRIRTRLQRPGPVRFWNGSSPPTGEDRRAALVP | failed
